Here are results for 13 molecules from patent US20180127513A1 (Bristol-Myers Squibb, published 2018).

Residue numbers refer to the chain shown, from its start. Names may count otherwise.

To fix the notation:
T1: human CD73 on cells (human, UniProt P21589 27-549)
T1 sequence: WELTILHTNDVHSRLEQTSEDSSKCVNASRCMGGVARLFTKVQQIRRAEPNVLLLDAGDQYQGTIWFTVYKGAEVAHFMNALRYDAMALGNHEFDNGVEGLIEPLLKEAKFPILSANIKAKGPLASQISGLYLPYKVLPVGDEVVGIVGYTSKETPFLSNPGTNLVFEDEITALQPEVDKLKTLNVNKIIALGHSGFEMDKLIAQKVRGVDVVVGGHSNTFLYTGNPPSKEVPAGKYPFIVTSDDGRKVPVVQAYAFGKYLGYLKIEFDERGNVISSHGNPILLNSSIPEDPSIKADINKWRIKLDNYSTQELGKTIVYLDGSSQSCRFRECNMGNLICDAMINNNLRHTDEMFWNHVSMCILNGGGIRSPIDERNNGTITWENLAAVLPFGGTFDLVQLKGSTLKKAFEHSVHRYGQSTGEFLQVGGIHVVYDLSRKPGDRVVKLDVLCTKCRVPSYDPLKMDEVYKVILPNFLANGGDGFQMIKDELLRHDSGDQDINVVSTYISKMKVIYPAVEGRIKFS

T2: N-hCD73-his (human, UniProt P21589 26-336)
T2 construct: also called hCD73(26-336)His; CD73(26-336)His; not shown: His tag
T2 sequence: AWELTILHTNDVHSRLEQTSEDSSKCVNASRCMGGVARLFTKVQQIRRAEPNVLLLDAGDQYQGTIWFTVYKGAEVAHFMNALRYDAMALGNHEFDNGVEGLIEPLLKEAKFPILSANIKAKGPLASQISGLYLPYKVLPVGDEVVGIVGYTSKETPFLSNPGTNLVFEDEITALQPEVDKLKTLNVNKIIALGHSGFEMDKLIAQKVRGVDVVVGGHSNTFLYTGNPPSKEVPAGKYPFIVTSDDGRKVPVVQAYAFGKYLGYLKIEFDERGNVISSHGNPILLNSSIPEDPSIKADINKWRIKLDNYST

B1: CD73.10-IgG2-C219S (antibody)
heavy: QVQLVESGGGVVQPGRSLRLSCAASGFTFSNYGMHWVRQAPGKGLEWVAVIWYDESNKYYPDSVKGRFTISRDNSKNTLYLQMNSLRAEDTAVYYCARGGSSWYPDSFDIWGQGTMVTVSSASTKGPSVFPLAPCSRSTSESTAALGCLVKDYFPEPVTVSWNSGALTSGVHTFPAVLQSSGLYSLSSVVTVPSSNFGTQTYTCNVDHKPSNTKVDKTVERKSCVECPPCPAPPVAGPSVFLFPPKPKDTLMISRTPEVTCVVVDVSHEDPEVQFNWYVDGVEVHNAKTKPREEQFNSTFRVVSVLTVVHQDWLNGKEYKCKVSNKGLPAPIEKTISKTKGQPREPQVYTLPPSREEMTKNQVSLTCLVKGFYPSDIAVEWESNGQPENNYKTTPPMLDSDGSFFLYSKLTVDKSRWQQGNVFSCSVMHEALHNHYTQKSLSLSPG
light: not shown
notes: also called CD73.10-IgG2CS; CD73.10-IgG2S
B2: CD73.10-IgG2-C219S-IgG1.1f (antibody)
heavy: B1 heavy with Q274K, F296Y, F300Y, V309L, G327A, A330S, P331S, T339A, M397V
light: not shown
B3: CD73.4-IgG2-C219S-IgG1.1f (antibody)
heavy: QVQLVESGGGVVQPGRSLRLSCAASGFTFSNYGMHWVRQAPGKGLEWVAVILYDGSNKYYPDSVKGRFTISRDNSKNTLYLQMNSLRAEDTAVYYCARGGSSWYPDSFDIWGQGTMVTVSSASTKGPSVFPLAPCSRSTSESTAALGCLVKDYFPEPVTVSWNSGALTSGVHTFPAVLQSSGLYSLSSVVTVPSSNFGTQTYTCNVDHKPSNTKVDKTVERKSCVECPPCPAPPVAGPSVFLFPPKPKDTLMISRTPEVTCVVVDVSHEDPEVKFNWYVDGVEVHNAKTKPREEQYNSTYRVVSVLTVLHQDWLNGKEYKCKVSNKALPSSIEKTISKAKGQPREPQVYTLPPSREEMTKNQVSLTCLVKGFYPSDIAVEWESNGQPENNYKTTPPVLDSDGSFFLYSKLTVDKSRWQQGNVFSCSVMHEALHNHYTQKSLSLSPG
light: not shown
modifications: N-terminal Gln 94% pyro-Q; 97% of heavy chains lack the C-terminal Lys
B4: 7A11 (antibody, human IgG1, kappa, V domains shown)
VH: EVQLVESGGGLVQTGRSLRLSCAASGFTFDDYAMHWVRQAPGKGLEWVSDISWNSDIIGYADSVKGRFTISRDNAKNSLYLQMNSLRAEDTALYYCAKDIYGSGSSFFDYWGQGILVTVSS
VL: DIQMTQSPSSLSASVGDRVTITCRASQYISSWLAWYQQKPEKAPKSLIYAASSLQSGVPSRFSGSGSGTDFTLTISSLQPEDFATYYCQQYHSYPPTFGQGTRLEIKR
B5: 11F11 (antibody, human IgG2, kappa, V domains shown)
VH: QVQLVESGGGVVQPGRSLRLSCATSGFTFSNYGMHWVRQAPGKGLEWVAVILYDGSNKYYPDSVKGRFTISRDNSKNTLYLQMNSLRAEDTAVYYCARGGSSWYPDSFDIWGQGTMVTVSS
VL: B4 VL with Y28G, H92N, P96L, Q100G, R103K, L104V
notes: IgG2; also called 11F11-2
B6: 10D2 (antibody, human IgG4, kappa, V domains shown)
VH: B5 VH with T24A, M34L, L52R, P61A, N84S, S107G, F108L, I110V, M116T
VL: B4 VL with Y28G, H92N, P96L, Q100G, R103K, L104V
B7: 24H2 (antibody, human IgG4, kappa, V domains shown)
VH: B5 VH with T24A, L52W, S56G, P61A, Y80F, S107A
VL: B4 VL with Y28G, H92N, P96L, Q100G, R103K, L104V
B8: 4D4 (antibody, human IgG2, kappa)
heavy: QVQLVESGGGVVQPGRSLRLSCAASGFTFSNYGMHWVRQAPGKGLEWVAVIWYDESNKYYADSVKGRFTISRDNSKNTLFLQMNSLRAEDTAVYYCARGYNSRWYPDAFDIWGQGTMVTVSSASTKGPSVFPLAPCSRSTSESTAALGCLVKDYFPEPVTVSWNSGALTSGVHTFPAVLQSSGLYSLSSVVTVPSSNFGTQTYTCNVDHKPSNTKVDKTVERKCCVECPPCPAPPVAGPSVFLFPPKPKDTLMISRTPEVTCVVVDVSHEDPEVQFNWYVDGVEVHNAKTKPREEQFNSTFRVVSVLTVVHQDWLNGKEYKCKVSNKGLPAPIEKTISKTKGQPREPQVYTLPPSREEMTKNQVSLTCLVKGFYPSDIAVEWESNGQPENNYKTTPPMLDSDGSFFLYSKLTVDKSRWQQGNVFSCSVMHEALHNHYTQKSLSLSPGK
light: not shown
notes: IgG2; also called 4D4-1
B9: CD73.4-IgG2-C219S (antibody)
heavy: B1 heavy with W52L, E55G
light: not shown
notes: also called CD73.4-IgG2CS; CD73.4-IgG2.3; copies: 2 + 2
B10: 4C3 (antibody, human IgG1, kappa, V domains shown)
VH: EVQLVESGGGLVQPGRSLRLSCAASGFTFDDYAMHWVRQAPGKGLEWVSGISWKSGSIGYADSVKGRFTISRDNAKNSLYLQMNSLRAEDTALYYCVKGYYVILTGLDYWGQGTLVTVSS
VL: not shown
notes: IgG1za; also called 4C3-1
B11: CD73.11-IgG2-C219S (antibody)
heavy: QVQLVESGGGVVQPGRSLRLSCAASGFTFSNYGMHWVRQAPGKGLEWVAVIWYDESNKYYADSVKGRFTISRDNSKNTLFLQMNSLRAEDTAVYYCARGYNSRWYPDAFDIWGQGTMVTVSSASTKGPSVFPLAPCSRSTSESTAALGCLVKDYFPEPVTVSWNSGALTSGVHTFPAVLQSSGLYSLSSVVTVPSSNFGTQTYTCNVDHKPSNTKVDKTVERKSCVECPPCPAPPVAGPSVFLFPPKPKDTLMISRTPEVTCVVVDVSHEDPEVQFNWYVDGVEVHNAKTKPREEQFNSTFRVVSVLTVVHQDWLNGKEYKCKVSNKGLPAPIEKTISKTKGQPREPQVYTLPPSREEMTKNQVSLTCLVKGFYPSDIAVEWESNGQPENNYKTTPPMLDSDGSFFLYSKLTVDKSRWQQGNVFSCSVMHEALHNHYTQKSLSLSPG
light: not shown
notes: also called CD73.11-IgG2CS
B12: 5F8 (antibody, human IgG1, kappa, V domains shown)
VH: EVQLVESGGGLVQPGGSLRLSCAASGFTFSSYWMHWVRQAPGKGLVWVSRIISDGSSTGYADSVKGRFTISRDNAKNTLYLQMNSLRAEDTAVYYCAREFSSGWYFDYWGQGTLVTVSS
VL: AIQLTQSPSSLSASVGDRVTITCRASQGISSALAWYQQKPGKAPKLLIYDASSLESGVPSRFSGSGSGTDFTLTISSLQPEDFATYYCQQFSSYPRTFGQGTKVEIKR
B13: 11A6 (antibody, human IgG1, kappa, V domains shown)
VH: B10 VH with G10N, K54N, S55N, G56N, S57D, T69I, A88P, L115P
VL: B4 VL with Y28G, H92N, P96L, Q100G, R103K, L104V

The first assay has as its target T1, human CD73 on cells. Kind of assay: cell-based or functional assay.
Turning to B1, the “Ymax, CD73 internalization (100 nM 11F11 set to 100%)” value was 99%. Same read-out and setting: the result for B2 reads 99%; that for B3, 97%. Turning to B4, the “Ymax, CD73 internalization (100 nM 11F11 set to 100%)” value was 50%. For B5, the “Ymax, CD73 internalization (100 nM 11F11 set to 100%)” value worked out at 98%.

On to B6, for which the “Ymax, CD73 internalization (100 nM 11F11 set to 100%)” value amounted to 29%. For the molecule B7, the “Ymax, CD73 internalization (100 nM 11F11 set to 100%)” value is 51%.

Regarding B8, the “Ymax, CD73 internalization (100 nM 11F11 set to 100%)” value was 104%.

A further assay concerns the target T2, N-hCD73-his. Kind of assay: SPR. An excerpt:
One experimental format tested the binding of the N-terminal domain of hCD73 (consisting of residues 26-336 of human CD73; termed N-hCD73) to antibodies that were captured on immobilized protein A surfaces. For these experiments, protein A (Pierce) was immobilized to a density of 3000-4000 RU on flow cells 1-4 of a CM5 sensor chip (GE Healthcare) using standard ethyl(dimethylaminopropyl) carbodiimide (EDC)/N-hydroxysuccinimide (NHS) chemistry, with ethanolamine blocking, in a running buffer of 0.01 M HEPES pH 7.4, 0.15 M NaCl, 3 mM EDTA, 0.005% v/v tween 20. […] The running buffer for the kinetic experiments was 10 mM sodium phosphate, 130 mM sodium chloride, 0.05% tween 20, pH 7.1. The surfaces were regenerated after each cycle using two 30 s pulses of 10 mM glycine pH 1.5 at a flow rate of 30 μl/min. Sensogram data was double-referenced and then fitted to a 1:1 Langmuir model using Biacore T100 evaluation software v2.0.4, to determine the association rate constant (ka), the dissociation rate constant (kd), and the equilibrium dissociation constant (KD).
(In SPR one partner is held on a chip, and binding of the other changes the refractive index at the surface.)
On to B9, for which binding was characterised by a dissociation constant (Kd) of 1.1 nM. Same read-out and setting: for B1 the value was about 5 nM; for B10, 100 to 200 nM.

With B5, the Kd (commonly the constant that tells how readily two partners part at equilibrium) came out at 1.1 nM. Take B11: the Kd is about 5 nM. Still for that read-out and setting: for B8 the value was about 5 nM.

For another assay, the target named is T1, human CD73 on cells. Kind of assay: cell-based or functional assay. The source holds these as a separate data set.
As for B12, the “Ymax, cAMP HTRF assay (100 nM 11F11 set to 100%)” value is 80%. The same measure, in the same setting: for B13 the value was 84%; for B4, 45%. The same measure, in the same setting: for B10 the value was 80%. Still for that read-out and setting: the result for B5 reads 76%.
